According to the supplement of paper PMC9876800:

Tested on: peptide library, one residue held at a place counted from the S/T acceptor
Experiment: relative phosphorylation of the sub-library (ratio to the mean residue at this position); higher = residue favoured
Settings: human
Summary of the method: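 In 384-well plates, purified recombinant kinases (human or orthologue constructs) were incubated for 90 min under kinase-specific conditions with 50 μM biotinylated degenerate peptide sub-libraries and 50 μM ATP spiked with γ-32P-ATP. Each sub-library fixed a single residue at one position around a central Ser/Thr. Relative sub-library phosphorylation, measured by phosphorimaging and densitometry of streptavidin membrane spots, is given as a ratio to the mean residue at that position.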

Chain of CAMK2G, construct: aa24-334 (Q13555 24-334, looked up): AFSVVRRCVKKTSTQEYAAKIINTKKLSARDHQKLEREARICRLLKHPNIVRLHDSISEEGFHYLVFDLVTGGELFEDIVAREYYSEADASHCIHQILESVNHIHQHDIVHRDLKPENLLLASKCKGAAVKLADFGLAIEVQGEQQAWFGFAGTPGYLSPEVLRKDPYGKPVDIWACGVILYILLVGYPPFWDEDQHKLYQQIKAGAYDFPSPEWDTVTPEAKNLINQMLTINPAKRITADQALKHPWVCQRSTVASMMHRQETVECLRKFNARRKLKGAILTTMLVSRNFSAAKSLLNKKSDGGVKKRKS
Chain of CDK6, construct: Full length (Q00534 whole entry, looked up): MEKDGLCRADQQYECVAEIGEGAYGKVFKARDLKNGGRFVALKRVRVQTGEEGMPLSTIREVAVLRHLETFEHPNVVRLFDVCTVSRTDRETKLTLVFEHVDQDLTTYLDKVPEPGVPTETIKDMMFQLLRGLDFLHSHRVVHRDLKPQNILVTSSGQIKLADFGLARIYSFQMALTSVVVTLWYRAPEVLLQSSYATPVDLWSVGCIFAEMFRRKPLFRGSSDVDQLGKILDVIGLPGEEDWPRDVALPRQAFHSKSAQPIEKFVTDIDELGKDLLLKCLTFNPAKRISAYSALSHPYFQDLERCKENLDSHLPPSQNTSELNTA

CAMK2G, construct: aa24-334 (from UniProt Q13555)
relative phosphorylation
Settings	at +1	at +2	at +3	at +4	at -1	at -2	at -3	at -4	at -5
A fixed	0.737	0.749	0.902	0.943	0.933	0.991	0.897	0.98	1
D fixed	0.862	3.95	1.64	1.87	1.41	1.02	0.898	1.07	1.13
E fixed	0.878	2.06	2.04	1.99	1.26	0.887	0.9	1.04	1.12
F fixed	2.53	0.723	0.818	0.816	0.913	1.25	1.27	0.987	0.991
G fixed	0.709	0.692	0.983	1.02	0.953	1.07	0.829	0.974	0.971
H fixed	0.814	0.784	0.979	0.903	0.897	1.25	1.06	1.14	1.19
I fixed	1.14	0.712	0.879	0.814	0.855	0.775	0.918	0.924	0.855
K fixed	0.824	0.705	0.863	0.785	1.1	0.889	0.945	0.946	1.09
L fixed	1.01	0.675	0.907	0.812	0.965	0.795	0.916	0.894	0.953
M fixed	1.43	0.696	0.855	0.785	0.944	0.841	1.04	0.903	0.871
N fixed	0.813	0.92	0.943	0.91	1.05	1.17	1.04	1.07	1.02
P fixed	0.675	0.64	0.708	0.948	0.78	0.705	0.871	0.896	0.864
Q fixed	0.959	0.773	0.98	0.911	1.07	1	0.982	0.96	0.916
R fixed	0.841	0.72	0.833	0.764	1.11	0.963	1.14	0.906	1
V fixed	1.02	0.729	0.888	0.85	0.912	0.805	0.829	0.883	0.963
W fixed	0.776	0.74	0.877	1.01	0.919	1.41	1.33	1.37	1.13
Y fixed	0.984	0.728	0.907	0.881	0.933	1.18	1.14	1.05	0.938
pThr fixed	1.09	1.16	1.78	2.53	1.25	1	0.985	1.11	1
pTyr fixed	1.23	4.79	1.69	2.15	1.63	1.11	1.11	1.1	1.02

CDK6, construct: Full length (from UniProt Q00534)
relative phosphorylation
Settings	at +1	at +2	at +3	at +4	at -1	at -2	at -3	at -4	at -5
A fixed	0.249	0.659	0.594	0.709	0.827	0.895	1.21	1.02	1.04
D fixed	0.113	0.259	0.209	0.504	0.48	0.316	0.476	0.884	0.866
E fixed	0.11	0.238	0.174	0.424	0.473	0.406	0.66	0.859	0.909
F fixed	0.353	0.811	0.529	0.795	0.908	1.1	0.978	0.852	0.979
G fixed	1.39	0.731	0.681	1.15	1.29	0.73	1.42	1.04	1.23
H fixed	0.295	1.24	1.06	1.23	1.11	1.16	1.2	1.11	1.18
I fixed	0.308	1.04	0.461	0.746	0.493	0.878	0.932	0.757	0.669
K fixed	0.303	1.83	3.16	1.64	1.23	0.788	1.03	1.35	1.57
L fixed	0.344	1.1	0.458	0.785	1.14	1.29	1.08	0.85	0.773
M fixed	0.328	1.01	0.581	0.891	1.28	1.5	1.03	0.867	0.736
N fixed	0.211	0.885	0.747	0.957	0.746	0.783	0.827	1.19	1.04
P fixed	11.6	0.494	0.862	1.01	1.26	2.2	1.15	1.07	1.24
Q fixed	0.258	0.905	0.702	1.03	1.04	0.894	0.865	1.05	0.99
R fixed	0.31	3.29	5	2.44	1.78	0.969	1.33	1.15	1.31
V fixed	0.315	0.956	0.513	0.724	0.64	0.835	0.886	0.673	0.68
W fixed	0.285	0.665	0.58	1.13	1.08	1.06	0.92	1.25	0.721
Y fixed	0.24	0.887	0.688	0.829	1.23	1.19	1.02	1.05	1.06
pThr fixed	0.326	0.502	0.433	0.336	0.25	0.548	0.725	0.882	0.934
pTyr fixed	0.339	0.36	0.486	0.349	0.324	0.798	0.81	1.12	1.34
